Consider three substances from PMC2917185.

In experiment [1] the target is cpSRP43 (mature) (UniProt O22265). In words: fluorescence polarisation. In general terms: Fluorescence polarisation rises when a labelled molecule tumbles more slowly, as on binding a larger partner.
Experiment [2] addresses LHCP (light-harvesting chlorophyll a/b binding protein), fluorescein-labeled (UniProt P07371). Kind of experiment: fluorescence polarisation.

As for L18 peptide, in experiment [1], the Ki (commonly the equilibrium dissociation constant of an inhibitor or competing ligand from its target) was 2200 nM.
As for cpSRP43 ΔCD2 (domain or fragment), the dissociation constant (Kd) – broadly, the equilibrium constant for the complex coming apart – in experiment [2] was determined as 530 nM.
In turn, cpSRP43 ΔCD3 (domain or fragment) yielded a Kd in experiment [2] of 886 nM.
